Data reported in PMC3407074.

Tests used:
[1] = molecular target: recP12-Cd4d3/4-bio (Plasmodium falciparum); assay: SPR; BIAcore T100, 37°C; recP12 captured on a streptavidin chip; two-fold dilutions from 3.6 µM recP41-Cd4d3/4-6H at 100 µL/min; kinetic analysis, 1:1 binding model
[2] = molecular target: recP12-Cd4d3/4-bio (Plasmodium falciparum); assay: SPR; BIAcore T100, 37°C; recP12-Cd4d3/4-bio captured on a streptavidin chip, biotinylated Cd4d3/4 as reference; serial dilutions of recP41-Cd4d3/4-6H at 10 µL/min; equilibrium analysis, Langmuir isotherm

## recP41-Cd4d3/4-6H (domain or fragment)
[1]
  koff: 0.0212 s⁻¹
  kon: 134000 M⁻¹ s⁻¹
[2]
  Kd: 310 nM
